# According to paper PMC4228697:
# Tests used:
# Assay in all cases: SPR
# [1] = target: CCR2 (wheat-germ proteoliposome) (human) (UniProt P41597)
# [2] = target: CXCR2 (wheat-germ proteoliposome) (human) (UniProt P25025)
# [3] = target: CXCR1 (wheat-germ proteoliposome) (human) (UniProt P25024)
# [4] = target: C5aR (wheat-germ proteoliposome) (human) (UniProt P21730)
# Sequence of UniProt P21730 (P21730 whole entry): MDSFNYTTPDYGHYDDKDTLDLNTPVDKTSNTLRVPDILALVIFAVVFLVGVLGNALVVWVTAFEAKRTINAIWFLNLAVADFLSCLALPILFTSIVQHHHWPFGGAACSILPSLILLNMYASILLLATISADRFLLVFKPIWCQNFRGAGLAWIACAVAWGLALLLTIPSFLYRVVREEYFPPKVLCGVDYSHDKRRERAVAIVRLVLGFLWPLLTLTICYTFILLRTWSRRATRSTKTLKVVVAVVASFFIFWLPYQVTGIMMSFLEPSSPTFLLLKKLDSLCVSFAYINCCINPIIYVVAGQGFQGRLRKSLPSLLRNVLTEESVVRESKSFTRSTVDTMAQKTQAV
# Sequence of UniProt P25024 (P25024 whole entry): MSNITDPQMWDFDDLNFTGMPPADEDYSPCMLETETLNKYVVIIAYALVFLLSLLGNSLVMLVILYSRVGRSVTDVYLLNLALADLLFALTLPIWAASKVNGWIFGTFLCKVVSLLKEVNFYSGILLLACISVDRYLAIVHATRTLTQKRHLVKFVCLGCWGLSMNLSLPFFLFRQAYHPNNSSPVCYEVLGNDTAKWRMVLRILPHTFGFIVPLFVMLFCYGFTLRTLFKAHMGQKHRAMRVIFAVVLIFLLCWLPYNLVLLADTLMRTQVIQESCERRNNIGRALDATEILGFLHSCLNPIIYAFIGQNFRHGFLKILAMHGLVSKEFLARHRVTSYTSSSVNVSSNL
# Sequence of UniProt P25025 (P25025 whole entry): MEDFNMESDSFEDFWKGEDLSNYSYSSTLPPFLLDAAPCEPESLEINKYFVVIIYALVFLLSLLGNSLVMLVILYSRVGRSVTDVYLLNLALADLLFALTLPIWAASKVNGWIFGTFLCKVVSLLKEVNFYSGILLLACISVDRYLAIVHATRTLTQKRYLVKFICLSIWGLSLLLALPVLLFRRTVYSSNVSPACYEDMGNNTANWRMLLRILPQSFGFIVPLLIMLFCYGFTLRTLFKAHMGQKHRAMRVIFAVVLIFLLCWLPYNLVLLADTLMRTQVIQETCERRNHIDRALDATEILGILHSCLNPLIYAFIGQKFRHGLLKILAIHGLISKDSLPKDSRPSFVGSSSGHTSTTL
Substance,Kd [1] [nM],Kd [2] [nM],Kd [3] [nM],Kd [4] [nM]
MCP-1 (from UniProt P13500 24-99) (ligand),0.84,,,
γ-Hemolysin component HlgA (from UniProt P0A074 30-309) (natural protein),3.51,27.2,5.69,
γ-Hemolysin component HlgC (from UniProt Q07227 30-315) (natural protein),,,,5.64
